Laboratory results published in article PMC8977021, “bZIP transcription factors PcYap1 and PcRsmA link oxidative stress response to secondary metabolism and development in Penicillium chrysogenum”.

T1: PcAtf21 del319-319 (Penicillium chrysogenum Wis54-1255 (P. rubens Wis54-1255)) (UniProt B6HLX5)
T1 sequence: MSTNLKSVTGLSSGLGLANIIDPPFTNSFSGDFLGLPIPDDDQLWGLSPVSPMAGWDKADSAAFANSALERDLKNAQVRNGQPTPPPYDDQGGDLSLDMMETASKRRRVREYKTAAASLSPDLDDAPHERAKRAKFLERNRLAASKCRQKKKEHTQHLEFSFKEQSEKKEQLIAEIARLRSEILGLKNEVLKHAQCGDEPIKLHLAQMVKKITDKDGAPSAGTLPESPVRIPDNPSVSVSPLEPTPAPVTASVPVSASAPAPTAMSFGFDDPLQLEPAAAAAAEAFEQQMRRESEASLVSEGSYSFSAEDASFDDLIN

T2: PcAtf21 (Penicillium chrysogenum Wis54-1255 (P. …, UniProt B6HLX5 1-318, del319-319))
T2 sequence: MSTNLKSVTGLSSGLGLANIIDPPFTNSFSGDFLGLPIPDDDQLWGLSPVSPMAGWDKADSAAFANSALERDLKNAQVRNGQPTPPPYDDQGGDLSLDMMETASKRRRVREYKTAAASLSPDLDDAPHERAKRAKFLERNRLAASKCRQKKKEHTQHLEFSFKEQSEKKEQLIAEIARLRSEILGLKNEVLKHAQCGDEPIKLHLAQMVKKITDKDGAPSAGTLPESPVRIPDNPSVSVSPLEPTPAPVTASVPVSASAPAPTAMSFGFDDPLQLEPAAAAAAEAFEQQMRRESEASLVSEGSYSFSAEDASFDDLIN


Tests used:
[1] = target: T1, PcAtf21 del319-319 (Penicillium chrysogenum Wis54-1255 (P. rubens Wis54-1255)); test: EMSA; settings: LightShift binding buffer 1X, about 10% glycerol, 5 mM MgCl2, 20 fmol biotin probe, 10 ug protein, 20 uL, room temperature 20 min; 5% native PAGE in 0.5X TBE …
PcAtf21 = target: T2, PcAtf21; test: EMSA; LightShift binding buffer 1X, about 10% glycerol, 5 mM MgCl2, 20 fmol biotin probe, 10 ug protein, 20 uL, room temperature 20 min; 5% native PAGE in 0.5X TBE; pH and salt not given; settings: protein: recombinant; tags: C-terminal c-myc-6xHis; chain copies: 2; label: 3' biotin; blunt

Row | Molecule | binding [1] | binding result (PcAtf21)
1 | AACATCGCCGTCGTTGAGTGCACGTTGCCTACTCTCTCGTGGCTTGGCTGGGCCCACGAGCCCGATTGACTCGACGGTGTTACTTGGGTATCTATGGCCCCGTTTTCTGGCACGGTAATGATAAGTACTTACTAGTCTTCGAGCGGGGGAGTGTTGCTCTGCCCGAGCATCAACGATTGGCCTGA (double strand) [probe 4] | no binding | –
2 | TGTTTATGCTGAGACAACCTGGAGACATTATACGCTTGCAGCCCAGATGCTTACTGGATGGGGCCGCTGGAGCCAGTGTAAAATTAGTAACCGTATCTCGAAGTCGGAGGGTCTTTGGTGGTCTGAGATTTCAGTCGGTCCGCACCGTGGCATTTGCAGACGGTGCGATCAGGCCAATCGTTGATGCTCGG (double strand) [probe 5] | no binding | –
3 | NorR4 (dsDNA) DNA 1: TTTCAACATTTCTTGAGTACTTTTCTAAGCCGTGACATAATGAACGGATCA DNA 2: TGATCCGTTCATTATGTCACGGCTTAGAAAAGTACTCAAGAAATGTTGAAA | – | binds
4 | penDE-CRE123 (dsDNA) DNA 1: AGGTCCTGCATTAGCGTACGCCCCAGGTTTAGATCAAAGTTACGTAATTTATATGTA DNA 2: TACATATAAATTACGTAACTTTGATCTAAACCTGGGGCGTACGCTAATGCAGGACCT | – | no binding
